Assays:
[1] = biological target: rSK2 small conductance, calcium-activated potassium channel (rat), P70604
[2] = biological target: T1, hIK1 intermediate conductance, calcium-activated potassium channel (human), O15554; experiment: block of macroscopic hIK1 current, patch clamp on macropatches from Xenopus oocytes
T1 chain: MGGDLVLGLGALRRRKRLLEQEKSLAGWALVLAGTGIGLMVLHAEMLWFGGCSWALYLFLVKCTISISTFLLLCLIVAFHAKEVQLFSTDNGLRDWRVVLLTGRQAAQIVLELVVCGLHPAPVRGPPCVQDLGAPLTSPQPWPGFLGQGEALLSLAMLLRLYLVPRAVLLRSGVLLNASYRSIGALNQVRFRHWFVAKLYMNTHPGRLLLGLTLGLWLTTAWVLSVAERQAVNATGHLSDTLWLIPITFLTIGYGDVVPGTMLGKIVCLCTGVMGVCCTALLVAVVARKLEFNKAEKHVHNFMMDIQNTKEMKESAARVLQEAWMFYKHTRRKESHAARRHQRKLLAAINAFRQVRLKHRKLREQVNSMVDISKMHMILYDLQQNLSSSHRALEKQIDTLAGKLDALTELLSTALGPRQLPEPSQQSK

Sequence of rSK2 small conductance, calcium-activated potassium channel (rat), P70604 (P70604 whole entry): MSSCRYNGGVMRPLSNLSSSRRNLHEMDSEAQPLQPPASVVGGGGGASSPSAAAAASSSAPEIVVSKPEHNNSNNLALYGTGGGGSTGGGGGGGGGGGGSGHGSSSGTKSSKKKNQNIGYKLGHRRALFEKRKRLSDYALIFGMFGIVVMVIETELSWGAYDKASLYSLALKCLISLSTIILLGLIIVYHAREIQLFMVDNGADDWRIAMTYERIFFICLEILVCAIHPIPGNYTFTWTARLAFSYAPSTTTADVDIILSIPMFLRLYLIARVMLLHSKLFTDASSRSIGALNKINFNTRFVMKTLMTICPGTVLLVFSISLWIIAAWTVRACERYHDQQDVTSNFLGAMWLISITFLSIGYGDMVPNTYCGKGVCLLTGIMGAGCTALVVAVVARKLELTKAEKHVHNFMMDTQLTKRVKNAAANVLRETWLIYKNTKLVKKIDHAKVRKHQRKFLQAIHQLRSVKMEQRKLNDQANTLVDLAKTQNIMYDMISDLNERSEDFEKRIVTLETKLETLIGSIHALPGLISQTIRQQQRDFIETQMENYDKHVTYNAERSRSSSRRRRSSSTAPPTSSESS

B1: apamin, P01500 28-45 (peptide)
peptide: CNCKAPETALCARRCQQH
modifications: not checked
[1]
  Kd: 0.063 nM

B2: charybdotoxin, P13487 23-59 (peptide)
peptide: QFTNVSCTTSKECWSVCQRLHNTSRGKCMNKKCRCYS
modifications: not checked
[2]
  Ki: 2.5 nM

From patent US20030082683A1
